One block for each molecule: values may come before it.
Assays:
[1] = molecular target: T1, 人TIGIT (hTIGIT) on 293T-hTIGIT cells (human) (UniProt Q495A1); experiment: flow cytometry on 293T-hTIGIT cells, secondary antibody alone (background control)
T1 sequence: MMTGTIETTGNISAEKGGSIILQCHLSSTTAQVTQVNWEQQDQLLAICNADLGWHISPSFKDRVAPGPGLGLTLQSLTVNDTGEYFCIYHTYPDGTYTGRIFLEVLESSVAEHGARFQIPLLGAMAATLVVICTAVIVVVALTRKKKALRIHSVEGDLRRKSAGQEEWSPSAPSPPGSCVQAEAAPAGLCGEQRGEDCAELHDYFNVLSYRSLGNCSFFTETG

[2] = molecular target: 食蟹猴TIGIT (Cyno-TIGIT) on 293T-Cyno-TIGIT cells (cynomolgus monkey (Macaca fascicularis)); experiment: flow cytometry on 293T-Cyno-TIGIT cells, secondary antibody alone (background control)
食蟹猴TIGIT (Cyno-TIGIT) on 293T-Cyno-TIGIT cells (cynomolgus monkey (Macaca fascicularis)), sequence (chain, as listed by the source limits assumed): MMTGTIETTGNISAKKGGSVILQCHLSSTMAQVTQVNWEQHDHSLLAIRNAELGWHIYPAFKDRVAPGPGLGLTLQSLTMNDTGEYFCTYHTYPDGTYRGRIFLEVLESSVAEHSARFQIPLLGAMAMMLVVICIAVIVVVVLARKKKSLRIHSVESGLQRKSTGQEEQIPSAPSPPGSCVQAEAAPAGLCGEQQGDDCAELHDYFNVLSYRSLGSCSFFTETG

[3] = molecular target: 食蟹猴TIGIT (Cyno-TIGIT) on 293T-Cyno-TIGIT cells (cynomolgus monkey (Macaca fascicularis)); experiment: flow cytometry on 293T-Cyno-TIGIT cells, 50 uL hybridoma supernatant, APC anti-mouse IgG Fc
[4] = molecular target: T2, TIGIT-hFc蛋白(人TIGIT胞外区与人IgG1 Fc的融合蛋白) (human) (UniProt Q495A1); experiment: flow cytometry, signal on 293T-hPVR cells with 500 ng TIGIT-hFc and 50 uL hybridoma supernatant
T2 sequence: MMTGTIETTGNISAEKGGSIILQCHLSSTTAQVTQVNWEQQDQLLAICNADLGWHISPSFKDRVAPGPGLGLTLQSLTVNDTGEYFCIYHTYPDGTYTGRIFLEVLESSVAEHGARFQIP

[5] = molecular target: T2, TIGIT-hFc蛋白(人TIGIT胞外区与人IgG1 Fc的融合蛋白) (human); experiment: flow cytometry, blocking of TIGIT-hFc binding to 293T-hPVR cells, hybridoma supernatant
[6] = molecular target: T1, 人TIGIT (hTIGIT) on 293T-hTIGIT cells (human); experiment: flow cytometry on 293T-hTIGIT cells, 0.5 ug antibody, APC anti-human IgG Fc
[7] = molecular target: T1, 人TIGIT (hTIGIT) on 293T-hTIGIT cells (human); experiment: flow cytometry on 293T-hTIGIT cells, 1.0 ug antibody, APC anti-human IgG Fc
[8] = molecular target: T1, 人TIGIT (hTIGIT) on 293T-hTIGIT cells (human); experiment: flow cytometry on 293T-hTIGIT cells, 1.7 ug antibody, APC anti-human IgG Fc

Geom.Mean [1]: 405
Molecule: APC抗人IgG Fc二抗(Biolegend, Cat409306) (antibody)

Geom.Mean [2]: 1920
Molecule: APC羊抗小鼠IgG Fc二抗(Biolegend, Cat405308) (antibody)

Geom.Mean [3]: 20000
Geom.Mean [4]: 2760
阻断率% [5]: 80.9%
B1: 鼠源抗TIGIT抗体(杂交瘤18A12分泌的抗体) (antibody, V domains shown)
VH: QVQLLESGGGLVQPGGSMKLSCVVSGFTFSNYWMNWVRQSPEKGLEWVAEIRLKSNNYATHYAESVKGRFAISRDDSKSSVYLQMNNLRAEDTGVYYCTRLYYGNYFDYWGQGTTLTVSS
VL: DIQMTQSPASLSASVGETVTITCRASENTYSYLAWYQQKQGKSPQLLVYNAKTLAEGVPSRFSGSGSGTQFSLKITSLQPEDFGSYYCQHHYAFSYTFGGGTKLEMK

Geom.Mean [6]: 8790
Geom.Mean [7]: 10300
Geom.Mean [8]: 12200
B2: 抗TIGIT嵌合抗体(IgG1亚型) (antibody, V domains shown)
VH: B1 VH
VL: DIQMTQSPASLSASVGETVTITCRASENTYSYLAWYQQKQGKSPQLLVYNAKTLAEGVPSRFSGSGSGTQFSLKITSLQPEDFGSYYCQHHYAFSYTFGGGTKLEMKR

From patent publication CN114790241A
